# Source: patent US8624002B2, “Prostaglandin E2 binding proteins and uses thereof” (AbbVie, Inc., priority 2008, dated 2014)
# Where a chain is given by its changes, count along the chain named. Names may count otherwise.
# B1: L11: human anti-PGE2 antibody from PROfusion mRNA display; VH SEQ ID NO 25, VL SEQ ID NO 29 (antibody, V domains shown)
# VH: EVQLVQSGPELKKPGTSVKVSCKASGYTLTTYAMNWVRQAPGQGLEWMGWIDTSTGNPTYAPGFLGRFVFSLDTSLSTTYLQISSLKPDDTAVYYCARSSHTRPGDFWGQGTLVTVSS
# VL: QSGLTQPPSVSGTPGQRVTISCSGSESNVGTNSVNWYQQLPGAAPRLLIRGNSDRPSGVPDRFSASKSGTSASLAISRLQSEDEADYFCGACDGRLSGLYVFGTGTKVTVL
# B2: K1B: human anti-PGE2 antibody from PROfusion mRNA display; VH SEQ ID NO 5, VL SEQ ID NO 9 (antibody, V domains shown)
# VH: EVQLVQSGAEVKRPGASVKVSCKTSGYTFTNYDINWVRLAPGQGLEWMGCMNPTTGKTGYAQKFQGRVTMTRDTTIATAYMELSRLTSEDTAVYYCARGRGYSPGYGVAYADYWGQGTLVTVSS
# VL: DIQLTQSPSSLPASVGDRVTITCRASQSISTYLNWYQQTPGKAPSLLIYAASSLQSGVPSRFSGSGSGTDFTLTISSLQPEDFATYYCQQSYSPPPTFGGGTKVEIKR
# B3: K7H: human anti-PGE2 antibody from PROfusion mRNA display; VH SEQ ID NO 21, VL SEQ ID NO 24 (antibody, V domains shown)
# VH: EVQLVQSGSELKKPGASVKVSCKASGYSFTEYGISWVRQAPGQGPEWMGCISPYNGKLHYAQKFLGRVTMTTDTSTNTAYMELRSLKSDDTAVYYCARGGFSSYDSSGYYYVTDHWGQGTLVTVSS
# VL: B2 VL with Q3R
# B4: K3A: human anti-PGE2 antibody from PROfusion mRNA display; VH SEQ ID NO 13, VL SEQ ID NO 17 (antibody, V domains shown)
# VH: B3 VH with S9A, L11T, K19E, K63E, L65Q, D73G, R84G, K87R, S103F
# VL: DIRLTQSPSSLSASVGDRVTITCRASQSIGSYLNWYQQKSGKAPKLLIYAASKLQSGVPSRFSGSGFGTDFTLTISSLQPEDSATYYCQQSDTTPFTFGQGTKLEIKR
# Assay: Biotin-PGE2 ELISA (PGE2-biotinamide binding to captured IgG)
# Conditions: Biotin-PGE2 0 μM
# Experimental: Enzyme linked immunosorbent assays to screen for antibodies that bind prostaglandin E2 were performed according to at least one of the two following methods.
# ELISA plates (Costar 3369, Corning, N.Y.) were coated with 50 μl of anti-host Fc IgG (Sigma, St. Louis, Mo.) at 2 μg/ml in PBS (Invitrogen Carlsbad, Calif.). Following an overnight incubation at 4° C., washed with PBS and the plate was blocked with 200 μl Superblock (Pierce #37535, Rockford, Ill.). The IgG containing samples were diluted to 1 μg/ml in Assay Buffer (10% Superblock in PBS containing 0.05% Surfactamps (Pierce #37535, Rockford, Ill.) and 50 μl/well added to each well and incubated for 1 hour at room temperature. Plates were washed four times with Tween-Tris Buffered Solution (TTBS). […] The titration curve samples were added to each IgG sample at 50 μl/well and incubated for 1 hour at room temperature. The plates were washed as previously described and 50 μl of 1:5000 dilution of streptavidin polyhrp40 (Fitzgerald Industries, Concord, Mass.) in Assay Buffer was added to each well and incubated for 45 minutes at room temperature. A final wash step was performed and the plates were developed using a single step TMB system (Sigma #T8665, St. Louis, Mo.) and 100 μl/well 2N H2SO4. Plates were read at 450 nm on a Molecular Devices Spectramax plate reader (Sunnyvale, Calif.). EC50 was determined using GraphPad Prism 5 (GraphPad Software, La Jolla, Calif.).
row,Binding to PGE2-Biotinamide (OD450),Molecule
1,0.04,B1
2,0.07,B2
3,0.04,B3
4,0.11,B4

# Same assay, conditions: Biotin-PGE2 0.1 μM
row,Binding to PGE2-Biotinamide (OD450),Molecule
1,0.04,B1
2,0.13,B2
3,0.03,B3
4,0.22,B4

# Same assay, conditions: Biotin-PGE2 0.3 μM
row,Binding to PGE2-Biotinamide (OD450),Molecule
1,0.04,B1
2,0.21,B2
3,0.04,B3
4,0.34,B4

# Same assay, conditions: Biotin-PGE2 1 μM
row,Binding to PGE2-Biotinamide (OD450),Molecule
1,0.05,B1
2,0.29,B2
3,0.06,B3
4,0.51,B4

# Same assay, conditions: Biotin-PGE2 2 μM
row,Binding to PGE2-Biotinamide (OD450),Molecule
1,0.07,B1
2,0.27,B2
3,0.10,B3
4,0.61,B4

# Same assay, conditions: Biotin-PGE2 5 μM
row,Binding to PGE2-Biotinamide (OD450),Molecule
1,0.07,B1
2,0.67,B2
3,0.13,B3
4,0.67,B4

# Same assay, conditions: Biotin-PGE2 15 μM
row,Binding to PGE2-Biotinamide (OD450),Molecule
1,0.07,B1
2,0.82,B2
3,0.29,B3
4,0.78,B4

# Same assay, conditions: Biotin-PGE2 45 μM; IgG-containing COS7 media
row,Binding to PGE2-Biotinamide (OD450),Molecule
1,0.07,B1
2,0.88,B2
3,0.24,B3
4,0.58,B4
